# Laboratory results taken from PMC8009405, “POT1 stability and binding measured by fluorescence thermal shift assays”.
# T1: POT1 (POT1-N) (UniProt Q9NUX5)
# T1 sequence: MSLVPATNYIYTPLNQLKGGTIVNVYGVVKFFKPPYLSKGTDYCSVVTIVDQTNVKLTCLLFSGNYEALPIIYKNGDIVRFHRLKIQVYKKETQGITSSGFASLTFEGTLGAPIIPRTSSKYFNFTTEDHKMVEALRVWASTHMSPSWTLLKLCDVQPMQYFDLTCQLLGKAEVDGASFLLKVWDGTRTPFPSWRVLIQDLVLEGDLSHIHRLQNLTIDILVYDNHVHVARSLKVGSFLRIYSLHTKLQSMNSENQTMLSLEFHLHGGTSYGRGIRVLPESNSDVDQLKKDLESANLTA
# T2: POT1 (POT1-N) (UniProt Q9NUX5 1-299)
# T2 sequence: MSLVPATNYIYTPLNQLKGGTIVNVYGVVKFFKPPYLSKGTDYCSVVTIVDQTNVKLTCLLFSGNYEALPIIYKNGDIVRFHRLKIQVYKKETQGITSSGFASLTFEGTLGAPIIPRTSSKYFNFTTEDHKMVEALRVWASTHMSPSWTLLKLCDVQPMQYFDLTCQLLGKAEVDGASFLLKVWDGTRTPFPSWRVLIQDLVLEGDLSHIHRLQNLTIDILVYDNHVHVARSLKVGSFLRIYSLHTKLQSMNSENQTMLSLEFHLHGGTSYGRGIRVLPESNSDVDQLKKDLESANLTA
# Assays:
# POT1 (POT1-N) [1] = molecular target: T1, POT1 (POT1-N); test: FTSA (SYPRO Orange); conditions: PNA backbone; printed as TTAGGGTTAG-O; 20 mM potassium phosphate, 180 mM KCl, pH 7.2; FTSA 20-99 °C, typically 5 uM POT1 and 50 uM DNA
# POT1 (POT1-N) [2] = molecular target: T2, POT1 (POT1-N); test: FTSA (SYPRO Orange); no appreciable Tm shift; 20 mM potassium phosphate, 180 mM KCl, pH 7.2; FTSA 20-99 °C, typically 5 uM POT1 and 50 uM DNA; conditions: protein: recombinant; tags: C-terminal 6xHis; single strand
# POT1 (POT1-N) [3] = molecular target: T2, POT1 (POT1-N); test: FTSA titration (SYPRO Orange), Model 3; dCp_b 0; binding entropy and unfolding enthalpy fitted; dG25 -57.9 kJ/mol; 20 mM potassium phosphate, 180 mM KCl, pH 7.2; FTSA 20-99 °C, typically 5 uM POT1 and 50 uM DNA; conditions: protein: recombinant; tags: C-terminal 6xHis; single strand
# POT1 (POT1-N) [4] = molecular target: T2, POT1 (POT1-N); test: FTSA titration (SYPRO Orange), Model 1; dCp_b -4300 J/mol/K; binding enthalpy fixed at -139 kJ/mol; dG25 -66.1 kJ/mol; 20 mM potassium phosphate, 180 mM KCl, pH 7.2; FTSA 20-99 °C, typically 5 uM POT1 and 50 uM DNA; conditions: protein: recombinant; tags: C-terminal 6xHis; single strand
# POT1 (POT1-N) [5] = molecular target: T2, POT1 (POT1-N); test: FTSA titration (SYPRO Orange), Model 2; dCp_b fixed at 0; binding enthalpy and entropy fitted; dG25 -57.7 kJ/mol; 20 mM potassium phosphate, 180 mM KCl, pH 7.2; FTSA 20-99 °C, typically 5 uM POT1 and 50 uM DNA; conditions: protein: recombinant; tags: C-terminal 6xHis; single strand
molecule,measurement,setting,value
TTAGGGTTAG [PNA of O1],binding signal (°C (delta Tm)),POT1 (POT1-N) [1],1
CTAACCCTAA (ssDNA) [O1c (negative control)],binding result,POT1 (POT1-N) [2],no binding
TTAGGGTTAG (ssDNA) [O1],Ka,POT1 (POT1-N) [3],1e+10 M⁻¹
same,Ka,POT1 (POT1-N) [4],4e+11 M⁻¹
same,Ka,POT1 (POT1-N) [5],1e+10 M⁻¹
